# Data reported in the nanobody polyreactivity screen of Harvey et al. (2022).
# Test: yeast display, Sf9 membrane polyspecificity reagent, FACS + sequencing; frameworks hold sequencing errors
# Summary of the method: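 Genes from sorted yeast were amplified by colony PCR, read by MiSeq 2 × 250 sequencing and filtered on CDR length. These cells carried a synthetic nanobody library in Saccharomyces cerevisiae BJ5465 and were sorted by FACS into low and high (top ~1%) gates on anti-HA and streptavidin fluorescence. Polyreactivity is labelled according to the gate of origin.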
row,Sequence,polyreactivity (PSR sort gate)
1,QVQLVESGAGLVQAGGSLRLSCASSGSIFVSNAMGWYRKAPGKERELVAAISQSGGSTYYADSVKGRFTISRDNAKNTVYLLMNSLKPEDTAVYYCATPIRSGFRIYDYWGQGTQVTVSS,low polyreactivity
2,QVQLVESGGGLVQAGGSLRLSCAASGSILYRYTMGWYIQAPGKERELVAAITKRGGRTYYADSVKGRFTISRDTAKNTVYLQMNSLKREDTAVYYCAAKYYTGGSFEMYYWGQGTQVTVSS,high polyreactivity
3,QVQLVESGGGLVQAGGSLRLSCAASGITQYGYAMGWYRQAPGKEREFVAAISRSGDRTYYADSVKGRYTISRDNAKNTVYLQLNSLKPEDTAVYYCNAWRYDYWGQGTQVTVSS,high polyreactivity
4,QVQLVESGGGLVQAGGSLRLSCAASGFTFSRYAMGWYRQAPGKERELVAAISYSGGRTYYADSVKGRFTISRDNAKNTVYLQMKSLKPEDTAVYYCNAFFTSSGWRLGYDYWGQGTQVTVSS,high polyreactivity
5,QVQLVESGGGLVQAGGSLRLSCAASGLIFVRYAMGWYRQAPGKERELVAAISRGGTTYYADSVKGRFTISRDNAKNTVYLQMNSLKPEDTAVYYCAVGIRYSKDYYYWGQGTQVTVSS,high polyreactivity
6,QVQLVESGGGLVQAGGSLRLSCAASGRIFEPYAMGWYRQAPGNERELVAAINSGGSTNYADSVKGRFTISRDNAKNTVYLQMNSLKPEDTAVYYCAASVYGQHAGPGRWYTFYYWGQGTQVTVSS,low polyreactivity
7,PVQLVESGGGLVQAGGSLRISCAASGRSFYVYAMGWYRQAPGKEREFVARITSNGGSPTYADSVKGRFTISRDKAKNTVYLQMNSLKPEDTAVYYCNADDGIHPNASPSFPQYDYWGPGTQVTVSS,low polyreactivity
8,QVQLVESGGGLVQAGGSLRLSCAASGSIFYDNAMGWYRQAPGKERELVAAIRGRGGSTYYADSVKGRFTISRDNAKNTVYLQMNSLKPVDTAVYYCAAERPIAVVRYYTYYYWGQGTQVTVSS,high polyreactivity
9,QVQLVESGGGLVQAGGSLRLSCAASGNILFYNAMGWYRQAPGKERELVAAISRSAGSTYYADSVKGRFTISRDNAKNTVYLQMNSLKPEDTAVYYCAAQYFRRSVYWGQGTQVTVSS,high polyreactivity
10,QVQLVESGGGLVQAGGSLRLSCAASGSIFTPNVMGWYRQAPGKERELVAAISQSGGSTFYADSVKGRFTISRDNAKNTVYLQMNSLKPEDTAVYYCATEYYGPVYDLDYDYWGQGTQVNVSS,low polyreactivity
11,QVQLVESGGGLVQAGGSLRLSCAASGFIFDYYAMGWYRQAPGKERELVATISSSGGSTYYADSVKGRFTISRDNAKNTVYLQMNSLKPEDTAVYYCATGYTWVADSWEYYYWGQGTQVTVSS,low polyreactivity
12,QVQLVESGGGLVQAGGSLRLSCAASGFTLYPYAMGRYRKAPGKERELVAAISSSSGSTYYADSVKGRFTISRDNAKNTVYVQMNSLKPDDTAVYYCARDSGYYWYYRYGYWGQGTQVTVSS,high polyreactivity
13,QVQLGESGGGLVQAGGSLRLSCAASGFTFHLYAMGWYRQAPGKERELVAAISQSGDSTYYADSVKGRFTISRDNAKNTVYLQMNSLKPDDTAVYYFNADNDGVVWSYPFDFDYWGQGTQVTVSS,low polyreactivity
14,QVQLVESGGCLVQAGGSLRLSCAASGSIFTKYTMGWYRQAPGRERELVAAITLRGTSTYYADSVKGRFTISRDIAKNTVYLQMNSLKPEDTAVYYCNKLYSWVVAYDYWGQGTQVTVSS,high polyreactivity
15,QGQLVESAGGLVQAAGSLRLSCAASGITFHYYAMGWYRQAPGKERELVAAIDGSDTDTYYADSVKGRFTISRDNAKNTVYLQMNSLKQEDTAVYYCAAEYTYAALARNDDYWGQCTQVTVSS,high polyreactivity
16,QVQLVESGGGLVQAGGSLRLSCAASGSIFYLNAMGWYRQAPGKERELVAAINSGGTTNYADSVKGRFTISRDNAKNTVYLQMNSLKPEDTAVYYCATDGYYYYYRVYKFDYWGQGTQVTVSS,low polyreactivity
17,QVQLVESGGALVQAGGSLRLSCAASGRTFGRYAMGWYRQAPGKEREFVASISRRGGTTYYADSVKGRFTLSRDNAKNTVYLQMNSLKPEDTGVYYCAKEGSPTNPWYGSYEYDYWGQGTQVTVSS,low polyreactivity
18,QVQLVESGGRLVQAGGSLRLSCAASGSTIAYNAMGWYIQAPGKERELVAANSKGGGSTYYADSVKGRFTISRDNAQNTVYLAMNSLKPAETAVYYCAAVSGYSTGGSRYRYNYWGQGTQVTVSS,high polyreactivity
19,QVQLVESGGGLVQAGGSLRLSCAASGRIFWYNAMGWSRQAPGKERELVAAISSIDGTTYYADSLKGRFTISRDNAKNTFYLQMNSLKPEDTAVYYCAAEDPADQYDYWGQGTQVTVSS,high polyreactivity
20,QVQLVESGGGLVQAGGSLRLSCAASGRIFGVNAMGLYRQAPGKERELVAVISSGGSTYYADSVKGRFTISRDNAKNTVYLQMNSLKPEDTAVYYCNAVVGRWFPYNLSDYWGQGTQVTVSS,low polyreactivity
21,QVQLVESGGGLVQAGGSLRLSCAASGSIFISSDRRLDRQAPGKERALVAAMRSRVGSTYYADSVKGRFTISRENGKNSDYFQMNSLKPEDTAVYYCKKDNAVDRRPWFQVTYVYWVQGTQVTVSS,low polyreactivity
22,QVQLVESGGGLVQAGGSLRLSCAASGSTFTKYTMGWYRQAPGKERELVAAITSSGGSTYYADSVKGRFTISRDNAKNTVYLQMNSLKPEDTAVFYCAAPALYYYYYYGYDYWGQGTQVTVSS,high polyreactivity

row,Sequence,polyreactivity (PSR sort gate)
1,QVQLVESGGGLVQAGGSLRLSCAASGIIFRYYVMGWYRQAPGKERELVAAISWSGGSTYYADSVKGRFTISRDNAKNTVYLQMNSLKPEDTAVYYCAASRGILASEFGYWGQGTQVTVSS,high polyreactivity
2,QVQLVDSGGGLVQAGGSLRLSCAASGFIFSWYAMGWYRQAPGKERELVAAINWSGGSTYYADSVKGRFTISRDNAKNTVYLQMNSLKPEDTAVYYCAAVTSGISKYDYWGQGTQVTVSS,high polyreactivity
3,QVQLVESGGGLVQAGGSLRLSCAASGRTFGVNAMGWYRQAPGKERELVAAINRGGSTYYADSVKGRFTISRDNAKNTVYLQMNSLKPEDTAVYYCAAYVSAVHRNSGYWGQGTQVTVSS,low polyreactivity
4,QVQLVESGGGLVQAGGSLRLSCAASGSTFPRNAMGWYRQAPGKERELVAAISRSGGSTYYADSVKGRFTISRDNAKNTVYLQINSLKPEDTAVYYCAASYYGLPRYRYEYWGQGTQVTVSS,high polyreactivity
5,QVQLVESGGGLVQAGGSLRLSCAASGSTITNYAMGWYRQAPGKERELVAAIRYSGGRTYYADSVKGRFTISRDNANNPGYLQMNSLKPEDTAVYYCAADRASYFTYAYGYWGQGTQVTVSS,high polyreactivity
6,QVQLVESGGGLVQAGGSLRLSCAASGSTFYRYAMGWYRPAPGKERELVAAITSAGSTNYADSVKGRFTISRDNAKNTVYLQMNSLKPEDTAVYYCAKDLTRWGYNEYDYWGQGSQVTVSS,low polyreactivity
7,QVQLVESGGGLVQAGGSLRLSCAASGSIFTQNAMGWYRQAPGKERELVAGISDGDSTNYADSVKGRFTISRDNAKNTVYLQMNSLKPEDTAVYYCNAQGTTETSGGGFFRGMDYWGQGTQVTVSS,low polyreactivity
8,QVQIVESGAGLVQAGGSLRISCAPSGRTFLYNAMGWYIQAPGKESELVAAIDGGTGSTYYADSVKARFTISRDNAKNTVYLQMIRLNPEDTAGYYCAAETYGVGYPVNYDYWGQGTQVTVSS,low polyreactivity
9,QVQLVESGGGLVQAGGSLRLSCAASGSTIRRNAKGWYRQAPGKERELVAAITRRAVSTYYADSVKGRFTISRDNAKNTVYLQMNSLKPEDTAVYYCAADRASYFTYAYGYWGQGTQVTVSS,high polyreactivity
10,QDQLVESGGGLVQAGVSLRLSCAASGSIIGSYAMGWYREAPAKERELVAAITRSGSRTYYADSVKGRFTISRDNAKNTVYLQINSLKPEDTAVYYCATGYPGGFDYWGLGTQVTVSS,high polyreactivity
11,QVQLVESGGGLVQAGGSLRLSCAASGSTFIEYAMGWYRQAPGTERELVAGITTSSGRTSYADSVKGRFSISRDNAKNTVYLQMNSLKPEDTAVYYCAADIYYYSPYDSFWYSEVDYWGQGTQVTVSS,low polyreactivity
12,QVQLVESGGGLVQAGGSLRLSCAHSGFTFTYYAMGWYRQAPGKEREFVAGISRSGGSTYYADSVKGRFTISRDIAKNTVYLQMNSLKPEDTAVYYCAATAYSPRGKRYDSWGQGTQVTVSS,high polyreactivity
13,QVQLVESGGGLVQAGGTLRLSGDASGSTFPANAMGWYRQAPGKERELVAAISYRGGSTYYADSVKGRFTISRDNAKNTVYLQMNSLKPEDTAVYYCAATPWYRTRTYDYWGQGTQVTVSS,high polyreactivity
14,QVQLVESGGGLVQAGGSLRLSCAASGSIFYGYAMGWYRQAPGKERELVAAISGGGRTNYADSVKGRFTISRDNAKNTVYLQMNSLKPEDTAVYYCARRSQRGIYSMYYWGQGTQVTVSS,low polyreactivity
15,QVQLVESGGGLVQEGGSLRLSCAASGSIFPLYDMGWYRQAPGKERELVAGISSGGSTNYADSVKGRFTISRDNAKNTVYLQMTSLKPEDTAVYYCAATGSSRYGYWGQGTQVTVSS,low polyreactivity
16,QVQLVESGGGLVQAGGSLRLSCAASGYIFGVYVMGSYRQAPGKERELVAAITRGGGNTYYADSVKGRFTISRDNAKNSVYLQMNSLKPEDTAVYYCAARSLKSLSRYYYWGQGTQVTVSS,high polyreactivity
17,QVQLVESGGGLVQAGGSLRLSCAASGSIFRPNAMGWYRQAPGKERELVAAITWSGDSTYYADSVKGRFTISRDNAKNTVYLQMNSLKPEDTADYYCAADFTYQGSSANDYWGQGTQVTVSS,low polyreactivity
18,QVKRVESGGGIVQAGGSLRLSCAASGSTFHKNVMGWYRQEPGKERELVAAISIIGVRTYYADSVKGRFTISRDNAKNTVYLQINSLKQVDTAVYYCNTDTQNRRGSGRGFWGEGTQVTVSS,high polyreactivity
19,QVQLVESGGGLVQAGGSLRLSCAASGSTFVRNARGWYRQAPGKERELVAAISRSGGRTYYADSVKGRFTISRDNAKNTVYLQMNSLKPEDTAVYYCAADGKSGYDYWGQGTQVTVSS,high polyreactivity
20,QVQLVESGGGLVQAGGSLRLSCAASGSIILHNAMGWYRQAPGKERELVAGITGSGGSTYYADSVKGRFTISRDNAMNTVYLQMNSLKPEDTAVYYCAAGSRSRYYRYVYYKYVTMDYWGQGTQVTVSS,high polyreactivity
21,QVQLVESGGGLVQAGGSLRLSSAASGSTSDNAMGWYRQAPGKEMEFVAAITSSGGSTTYADSVKGRFTISRDNAKNTVYLQMNSLKPEDTAVYYCNAGRVYYSNGYDYWGQGTQVTVSS,low polyreactivity
